Reference: US11592453B2, “Personalized metabolomic profiling of specialized pro-resolving mediators” (THE BRIGHAM AND WOMEN'S HOSPITAL, INC., priority 2016, dated 2023)
Like-named read-outs stand apart in the source and are kept apart here. Positions of bridges follow the written chain, without caps; N, C: chain ends. Non-standard residues stand in square brackets, D forms with d. Residues, ends and D or L forms follow the SMILES beside them. hArg = N=C(N)NCCCC[C@H](N)C(=O)O; Mpa = O=C(O)CCS

B1: adenosine deaminase (protein, UniProt P00813 2-363, looked up)
Adenosine deaminase: AQTPAFDKPKVELHVHLDGSIKPETILYYGRRRGIALPANTAEGLLNVIGMDKPLTLPDFLAKFDYYMPAIAGCREAIKRIAYEFVEMKAKEGVVYVEVRYSPHLLANSKVEPIPWNQAEGDLTPDEVVALVGQGLQEGERDFGVKARSILCCMRHQPNWSPKVVELCKKYQQQTVVAIDLAGDETIPGSSLLPGHVQAYQEAVKSGIHRTVHAGEVGSAEVVKEAVDILKTERLGHGYHTLEDQALYNRLRQENMHFEICPWSSYLTGAWKPDTEHAVIRLKNDQANYSLNTDDPLIFKSTLDTDYQMTKRDMGFTEEEFKRLNINAAKSSFLPEDEKRELLDLLYKAYGMPPSASAGQNL
notes: human recombinant adenosine deaminase, removes adenosine

How the values were obtained:
[1] = system: SPM production in human whole blood; assay: SPM and eicosanoid production during coagulation with heparin, eptifibatide, ADA, celecoxib or BAI; format: cell-based
Protocol: FIG. 2 illustrates regulators of SPM formation in human blood. (A to E) Freshly drawn human peripheral blood (4 ml) containing heparin (10 U/ml) was placed in polypropylene tubes (A) whereas human peripheral blood without anticoagulant was placed in silicone-coated tubes (B to E) and incubated at 37° C. for the time course of 0 to 24 hours (see Example 1, Materials and Methods). The samples were then subjected to snap-freezing for extraction and LC-MS/MS analysis. (A) Concentrations of the members of the SPM cluster (identified in FIG. 1) in samples treated without (Coag.) or with heparin (10 U/ml) during the incubation period. Data are means±SEM of three individual donors. (B) Left: Combined concentrations of the total SPM cluster, prostaglandins, and thromboxanes after 24 hours of coagulation in the presence or absence of the αIIbβ3 inhibitor eptifibatide (Eptifib.; 20 μM). Middle: Clot volumes after 24 hours of coagulation of the indicated samples. Right: Representative clot images. Data are means±SEM of three individual donors. (C) Concentrations of total SPMs and of the indicated individual SPMs after 24 hours of coagulation in the presence or absence of 200 mU ADA. Data are means±SEM of three individual donors. *P<0.05, **P<0.01 by ratio t-test. (D) Top: LC-MS/MS measurements of adenosine concentrations in whole blood at the indicated time points during coagulation in the presence or absence of ADA. **P<0.01 when compared to the zero-hour time point. Bottom: Flow cytometric analysis of the percentage of neutrophil-platelet aggregates, which were defined as being double-positive for CD16 and CD42b, in whole blood allowed to coagulate for the indicated times in the absence (Coag.) or presence of ADA. Data are means±SEM of five individual donors. *P<0.05, **P <0.01 by student's t test. For dot plots and gating, see FIG. 7B. (E) MS/MS fragmentation profiles with diagnostic ions for the indicated SPMs identified in (C). (F) Left: PCA score plot. Red denotes +ADA for 1 hour; yellow, coagulation for 1 hour; green, coagulation for 24 hours; blue, +ADA for 24 hours. Right: PCA loading plot showing temporal clustering of the indicated mediators from three individual donors. Red denotes LM at 1 hour; blue denotes 24 hours with ADA).
FIG. 8 illustrates SPM formation in human blood clots being regulated by lipoxygenase activity. (A and B) Freshly drawn human peripheral blood (4 ml) was placed in silicone-coated tubes at 37° C. for 24 hours and coagulation was stopped by snap-freezing before LC-MS/MS analysis was performed. Concentrations of total SPMs, prostaglandins, and thromboxanes after 24 hours of coagulation (Coag.) in the presence or absence of (A) 100 μM indomethacin (Indo.) (n=six individual donors), (B) 500 nM celecoxib (CLX) or 20 μM BAI (n=three individual donors). […]

[2] = system: human blood clot; assay: Clot volume after 24 hours of coagulation; format: cell-based; details: eptifibatide 20 μM, P<0.01
Protocol: (A to E) Freshly drawn human peripheral blood (4 ml) containing heparin (10 U/ml) was placed in polypropylene tubes (A) whereas human peripheral blood without anticoagulant was placed in silicone-coated tubes (B to E) and incubated at 37° C. for the time course of 0 to 24 hours (see Example 1, Materials and Methods). The samples were then subjected to snap-freezing for extraction and LC-MS/MS analysis. […] (B) Left: Combined concentrations of the total SPM cluster, prostaglandins, and thromboxanes after 24 hours of coagulation in the presence or absence of the αIIbβ3 inhibitor eptifibatide (Eptifib.; 20 μM). Middle: Clot volumes after 24 hours of coagulation of the indicated samples. Right: Representative clot images. Data are means±SEM of three individual donors.
Human whole blood was transferred in 4-ml aliquots to negatively charged, silicone-coated 10-ml tubes (BD) without anticoagulant. For experiments with heparin, the heparinized blood was placed in 15-ml polypropylene tubes before incubation at 37° C. For LM profiling at designated times, all samples were immediately subjected to a workup procedure by which whole blood was snap-frozen in a dry ice/isopropanol bath and were returned to room temperature (×3 cycles) before undergoing centrifugation at 100,000 g at 4° C.

[3] = Flow cytometric analysis of clots, cell viability (annexin V / PI); format: cell-based, human; details: human
Protocol: (§1) Human peripheral blood was collected from healthy individuals without anticoagulant and allowed to coagulate for 24 hours as described earlier. Clots were washed with phosphate-buffered saline (PBS) containing Ca2+ (0.9 mM) and Mg2+ (0.5 mM) and then gently homogenized and passed through a 70-micron filter. Clot-derived cells were stained for flow cytometric analysis. Cells were stained in FACS buffer (PBS with 1% BSA and 0.1% sodium azide). […] For viability assays, FITC-conjugated annexin V (BD) and propidium iodide (PI) were added to the cells according to the manufacturer's protocol. Samples were analyzed with a FACS Canto II flow cytometer (BD Bioscience) and FlowJo X Software.

[4] = system: clot-derived leukocytes and lymphocytes; assay: as above; format: cell-based, human
Protocol: as §1

[5] = ADA, P<0.01
Protocol: Human blood was subjected to the same freeze-thaw procedure as was used for the metabololipidomics. After centrifugation at 1000 g at 4° C. for 5 min, supernatants were reconstituted with 4 volumes of methanol and kept on ice for 30 min to facilitate protein precipitation. Samples were then subjected to centrifugation at 1000 g at 4° C. for 5 min. Supernatants were reconstituted to <1% methanol and then taken to LC-MS/MS for identification and quantitation of adenosine by matched retention time with ≥99%, pure adenosine (Sigma) through MRM transition 268>136 for the protonated adenine fragment (54).

[6] = system: neutrophil-platelet aggregates; assay: Neutrophil-platelet interactions by flow cytometry; format: cell-based, human; details: with ADA
Protocol: Whole blood was collected from healthy individuals without anticoagulant and allowed to coagulate for 1, 6, or 24 h with or without ADA. Clots were washed with PBS and then gently homogenized and passed through a 70 micron-filter. Clot derived neutrophil-platelet interactions were analyzed by flow cytometry with FITC-conjugated anti-human CD16 antibody (clone ebio CB16), and PE-conjugated anti-human CD42b (clone HIP1). Neutrophils were identified by their cell surface expression of CD16 and high side and forward scatter. Platelets were identified based on their low side and forward scatter on a log scale and on their cell surface expression of CD42b. Neutrophil and platelet aggregates were identified as CD14-cells that were double-positive for CD42b and CD16 as CD14-,CD42b+,CD16+,SSChigh,FSChigh.

[7] = 24 h coagulation, n = 3, mean +/- S.E.M.

Molecule | reduction of the total amount of the SPM cluster ([1]; eptifibatide 20 μM, 24 hours of coagulation, P<0.01) [%] | increase in clot volume [2] [%] | viability at 24 h [3] [%] | Early apoptosis [4] [%] | Late apoptosis [4] [%] | Necrotic [4] [%] | cell viability (in words) [4] | total SPM production vs. coagulation alone ([1]; 200 mU ADA, 24 hours) | time by which adenosine was cleared during coagulation [5] [h] | Early apoptosis [4, 7] [%] | Late apoptosis [4, 7] [%] | Live [4, 7] [%] | Necrotic [4, 7] [%] | cell viability (in words) ([4]; during coagulation) | number of platelet-neutrophil aggregates during the time course of coagulation [6]
N=C(N)NCCCC[C@@H]1NC(=O)CCSSC[C@@H](C(N)=O)NC(=O)[C@@H]2CCCN2C(=O)[C@H](Cc2c[nH]c3ccccc23)NC(=O)[C@H](CC(=O)O)NC(=O)CNC1=O [Eptifibatide, eptifibatide, reference compound] ([Mpa][hArg]GDWPC-NH2; disulfide 1-7) | ~50 | ~20 | 90.6 ± 1.3 | 5.1 ± 1.9 | 2.0 ± 0.5 | 0.9 ± 0.1 | without reducing cell viability |  |  |  |  |  |  |  | 
B1 |  |  |  |  |  |  |  | more than 8 times | ≤ 1 | 9.9 ± 2.9 | 5.8 ± 1.4 | 81.5 ± 0.5 | 2.7 ± 2.0 | Cell viability was not decreased | statistically significantly increased
